From publication PMC7403387

Molecular target: Neural cell adhesion molecule (NCAM1), endogenous in Vero cells (African green monkey (endogenous in Vero))

“Zika virus (ZIKV) E protein on the surface of purified mature virions, labelled with the maleimide-diazirine-biotin probe (natural protein)” showed a decrease in ZIKV attachment to Vero cells (RT-qPCR) with NCAM1 ECD protein or anti-NCAM1 antibody of 40%.
